From article PMC4959569

Tests used:
[1] = Q-PCR normalised to EWS-FLI1 protein level; conditions: control: mock treated SK-N-MC cells
[2] = Western blot densitometry, antibody 7.3; conditions: glycan lost; control: untreated SK-N-MC cells

Row | Protein | other: transcriptional repression of target gene ([1]; glycan lost) | expression_or_secretion, percent_of_wt [2] | other: transcriptional activation of target gene, fold_change ([1]; glycan gained) | other: transcriptional repression of target gene ([1]; glycan gained)
1 | EWS-FLI1: DON (protein) parent chain: MASTDYSTYSQAAAQQGYSAYTAQPTQGYAQTTQAYGQQSYGTYGQPTDVSYTQAQTTATYGQTAYATSYGQPPTGYTTPTAPQAYSQPVQGYGTGAYDTTTATVTTTQASYAAQSAYGTQPAYPAYGQQPAATAPTRPQDGNKPTETSQPQSSTGGYNQPSLGYGQSNYSYPQVPGSYPMQPVTAPPSYPPTSYSSTQPTSYDQSSYSQQNTYGQPSSYGQQSSYGQQSSYGQQPPTSYPPQTGSYSQAPSQYSQQSSSYGQQSSFRQDHPSSMGVYGQESGGFSGPGENRSMSGPDNRGRGRGGFDRGGMSRGGRGGGRGGMGSAGERGGFNKPGGPMDEGPDLDLGPPVDPDEDSDNSAIYVQGLNDSVTLDDLADFFKQCGVVKMNKRTGQPMIHIYLDKETGKPKGDATVSYEDPPTAKAAVEWFDGKDFQGSKLKVSLARKKPPMNSMRGGLPPREGRGMPPPLRGGPGGPGGPGGPMGRMGGRGGDRGGFPPRGPRGSRGNPSGGGNVQHRAGDWQCPNPGCGNQNFAWRTECNQCKAPKPEGFLPPPFPPPGGDRGRGGPGGMRGGRGGLMDRGGPGGMFRGGRGGDRGGFRGGRGMDRGGFGGGRRGGPGGPPGPLMEQMGGRRGGRGGPGKMDKGEHRQERRDRPY | no change | decreases |  | 
2 | EWS-FLI1: STZ (protein) parent chain: MASTDYSTYSQAAAQQGYSAYTAQPTQGYAQTTQAYGQQSYGTYGQPTDVSYTQAQTTATYGQTAYATSYGQPPTGYTTPTAPQAYSQPVQGYGTGAYDTTTATVTTTQASYAAQSAYGTQPAYPAYGQQPAATAPTRPQDGNKPTETSQPQSSTGGYNQPSLGYGQSNYSYPQVPGSYPMQPVTAPPSYPPTSYSSTQPTSYDQSSYSQQNTYGQPSSYGQQSSYGQQSSYGQQPPTSYPPQTGSYSQAPSQYSQQSSSYGQQSSFRQDHPSSMGVYGQESGGFSGPGENRSMSGPDNRGRGRGGFDRGGMSRGGRGGGRGGMGSAGERGGFNKPGGPMDEGPDLDLGPPVDPDEDSDNSAIYVQGLNDSVTLDDLADFFKQCGVVKMNKRTGQPMIHIYLDKETGKPKGDATVSYEDPPTAKAAVEWFDGKDFQGSKLKVSLARKKPPMNSMRGGLPPREGRGMPPPLRGGPGGPGGPGGPMGRMGGRGGDRGGFPPRGPRGSRGNPSGGGNVQHRAGDWQCPNPGCGNQNFAWRTECNQCKAPKPEGFLPPPFPPPGGDRGRGGPGGMRGGRGGLMDRGGPGGMFRGGRGGDRGGFRGGRGMDRGGFGGGRRGGPGGPPGPLMEQMGGRRGGRGGPGKMDKGEHRQERRDRPY |  |  | no change | no change
